This assay deals with proteins that co-immunoprecipitated with DUX4-CTD constructs expressed in MB135 myoblasts. The experiment in a line: LC-MS of proteins co-immunoprecipitated with DUX4-CTD (Table 1) and western validation. Format: binding, human. Also on record: key to 4. mL1dL2 + Dox + IFNG / 4. + IFNG mix / 4. longCTD + Dox + IFNG / 3. + IFNg + Dox longCTD / 3. + Dox longCTD / 3. + IFNG longCTD: peptide-spectrum matches (PSMs) per protein. The following applies: for 4. longCTD + Dox + IFNG: LC-MS counts of the listed protein co-immunoprecipitated with DUX4-CTD bait longCTD; for 4. longCTD + Dox + IFNG / 4. mL1dL2 + Dox + IFNG: experiment 4, Dox + IFNG; for 3. + IFNg + Dox longCTD / 3. + Dox longCTD: bait longCTD; for 3. + IFNg + Dox longCTD: experiment 3, IFNg + Dox; for SUM of PSMS: sum over all samples; for 4. mL1dL2 + Dox + IFNG: LC-MS counts of the listed protein co-immunoprecipitated with DUX4-CTD bait mL1dL2; for 3. + Dox longCTD: experiment 3, Dox only. The method in brief: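 Two independent experiments compared uninduced, doxycycline and doxycycline+IFNG MB135iDUX4-CTD (plus MB135iDUX4mL1dL2) myoblasts. Anti-FLAG pulldowns (3 h, 4 °C) were eluted in LDS buffer for western validation or with FLAG peptide for trypsin digestion and Orbitrap LC-MS; hits needed ≥2 PSMs in both experiments, ranked by total PSMs.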

B1: Q9NQC3 (protein, UniProt Q9NQC3 1-1192, looked up)
chain: MEDLDQSPLVSSSDSPPRPQPAFKYQFVREPEDEEEEEEEEEEDEDEDLEELEVLERKPAAGLSAAPVPTAPAAGAPLMDFGNDFVPPAPRGPLPAAPPVAPERQPSWDPSPVSSTVPAPSPLSAAAVSPSKLPEDDEPPARPPPPPPASVSPQAEPVWTPPAPAPAAPPSTPAAPKRRGSSGSVDETLFALPAASEPVIRSSAENMDLKEQPGNTISAGQEDFPSVLLETAASLPSLSPLSAASFKEHEYLGNLSTVLPTEGTLQENVSEASKEVSEKAKTLLIDRDLTEFSELEYSEMGSSFSVSPKAESAVIVANPREEIIVKNKDEEEKLVSNNILHNQQELPTALTKLVKEDEVVSSEKAKDSFNEKRVAVEAPMREEYADFKPFERVWEVKDSKEDSDMLAAGGKIESNLESKVDKKCFADSLEQTNHEKDSESSNDDTSFPSTPEGIKDRSGAYITCAPFNPAATESIATNIFPLLGDPTSENKTDEKKIEEKKAQIVTEKNTSTKTSNPFLVAAQDSETDYVTTDNLTKVTEEVVANMPEGLTPDLVQEACESELNEVTGTKIAYETKMDLVQTSEVMQESLYPAAQLCPSFEESEATPSPVLPDIVMEAPLNSAVPSAGASVIQPSSSPLEASSVNYESIKHEPENPPPYEEAMSVSLKKVSGIKEEIKEPENINAALQETEAPYISIACDLIKETKLSAEPAPDFSDYSEMAKVEQPVPDHSELVEDSSPDSEPVDLFSDDSIPDVPQKQDETVMLVKESLTETSFESMIEYENKEKLSALPPEGGKPYLESFKLSLDNTKDTLLPDEVSTLSKKEKIPLQMEELSTAVYSNDDLFISKEAQIRETETFSDSSPIEIIDEFPTLISSKTDSFSKLAREYTDLEVSHKSEIANAPDGAGSLPCTELPHDLSLKNIQPKVEEKISFSDDFSKNGSATSKVLLLPPDVSALATQAEIESIVKPKVLVKEAEKKLPSDTEKEDRSPSAIFSAELSKTSVVDLLYWRDIKKTGVVFGASLFLLLSLTVFSIVSVTAYIALALLSVTISFRIYKGVIQAIQKSDEGHPFRAYLESEVAISEELVQKYSNSALGHVNCTIKELRRLFLVDDLVDSLKFAVLMWVFTYVGALFNGLTLLILALISLFSVPVIYERHQAQIDHYLGLANKNVKDAMAKIQAKIPGLKRKAE
modifications: full-length
As to B1, the “4. longCTD + Dox + IFNG” value was found to be 6, the “3. + IFNg + Dox longCTD” value came out at 7 and the “SUM of PSMS” value is on record as 23.

B2: Q16576 (protein, UniProt Q16576 1-425, looked up)
chain: MASKEMFEDTVEERVINEEYKIWKKNTPFLYDLVMTHALQWPSLTVQWLPEVTKPEGKDYALHWLVLGTHTSDEQNHLVVARVHIPNDDAQFDASHCDSDKGEFGGFGSVTGKIECEIKINHEGEVNRARYMPQNPHIIATKTPSSDVLVFDYTKHPAKPDPSGECNPDLRLRGHQKEGYGLSWNSNLSGHLLSASDDHTVCLWDINAGPKEGKIVDAKAIFTGHSAVVEDVAWHLLHESLFGSVADDQKLMIWDTRSNTTSKPSHLVDAHTAEVNCLSFNPYSEFILATGSADKTVALWDLRNLKLKLHTFESHKDEIFQVHWSPHNETILASSGTDRRLNVWDLSKIGEEQSAEDAEDGPPELLFIHGGHTAKISDFSWNPNEPWVICSVSEDNIMQIWQMAENIYNDEESDVTTSELEGQGS
modifications: full-length
Take B2: the “4. longCTD + Dox + IFNG” value worked out at 5, the “3. + IFNg + Dox longCTD” value is 4 and the “SUM of PSMS” value is on record as 25.

B3: Q92973 (protein, UniProt Q92973 1-898, looked up)
chain: MVWDRQTKMEYEWKPDEQGLQQILQLLKESQSPDTTIQRTVQQKLEQLNQYPDFNNYLIFVLTKLKSEDEPTRSLSGLILKNNVKAHFQNFPNGVTDFIKSECLNNIGDSSPLIRATVGILITTIASKGELQNWPDLLPKLCSLLDSEDYNTCEGAFGALQKICEDSAEILDSDVLDRPLNIMIPKFLQFFKHSSPKIRSHAVACVNQFIISRTQALMLHIDSFIENLFALAGDEEPEVRKNVCRALVMLLEVRMDRLLPHMHNIVEYMLQRTQDQDENVALEACEFWLTLAEQPICKDVLVRHLPKLIPVLVNGMKYSDIDIILLKGDVEEDETIPDSEQDIRPRFHRSRTVAQQHDEDGIEEEDDDDDEIDDDDTISDWNLRKCSAAALDVLANVYRDELLPHILPLLKELLFHHEWVVKESGILVLGAIAEGCMQGMIPYLPELIPHLIQCLSDKKALVRSITCWTLSRYAHWVVSQPPDTYLKPLMTELLKRILDSNKRVQEAACSAFATLEEEACTELVPYLAYILDTLVFAFSKYQHKNLLILYDAIGTLADSVGHHLNKPEYIQMLMPPLIQKWNMLKDEDKDLFPLLECLSSVATALQSGFLPYCEPVYQRCVNLVQKTLAQAMLNNAQPDQYEAPDKDFMIVALDLLSGLAEGLGGNIEQLVARSNILTLMYQCMQDKMPEVRQSSFALLGDLTKACFQHVKPCIADFMPILGTNLNPEFISVCNNATWAIGEISIQMGIEMQPYIPMVLHQLVEIINRPNTPKTLLENTAITIGRLGYVCPQEVAPMLQQFIRPWCTSLRNIRDNEEKDSAFRGICTMISVNPSGVIQDFIFFCDAVASWINPKDDLRDMFCKILHGFKNQVGDENWRRFSDQFPLPLKERLAAFYGV
modifications: full-length
On to B3, for which the “4. longCTD + Dox + IFNG” value is reported as 3, the “4. mL1dL2 + Dox + IFNG” value came out at 6, the “3. + Dox longCTD” value was determined as 1 and the “3. + IFNg + Dox longCTD” value stood at 4. In addition, the “SUM of PSMS” value is reported as 14.

B4: O14929 (protein, UniProt O14929 1-419, looked up)
chain: MAGFGAMEKFLVEYKSAVEKKLAEYKCNTNTAIELKLVRFPEDLENDIRTFFPEYTHQLFGDDETAFGYKGLKILLYYIAGSLSTMFRVEYASKVDENFDCVEADDVEGKIRQIIPPGFCTNTNDFLSLLEKEVDFKPFGTLLHTYSVLSPTGGENFTFQIYKADMTCRGFREYHERLQTFLMWFIETASFIDVDDERWHYFLVFEKYNKDGATLFATVGYMTVYNYYVYPDKTRPRVSQMLILTPFQGQGHGAQLLETVHRYYTEFPTVLDITAEDPSKSYVKLRDFVLVKLCQDLPCFSREKLMQGFNEDMVIEAQQKFKINKQHARRVYEILRLLVTDMSDAEQYRSYRLDIKRRLISPYKKKQRDLAKMRKCLRPEELTNQMNQIEISMQHEQLEESFQELVEDYRRVIERLAQE
modifications: full-length
With B4, the “4. longCTD + Dox + IFNG” value was found to be 9, the “3. + IFNg + Dox longCTD” value turned out to be 3 and the “SUM of PSMS” value was found to be 23.

B5: P42224 (protein, UniProt P42224 1-750, looked up)
chain: MSQWYELQQLDSKFLEQVHQLYDDSFPMEIRQYLAQWLEKQDWEHAANDVSFATIRFHDLLSQLDDQYSRFSLENNFLLQHNIRKSKRNLQDNFQEDPIQMSMIIYSCLKEERKILENAQRFNQAQSGNIQSTVMLDKQKELDSKVRNVKDKVMCIEHEIKSLEDLQDEYDFKCKTLQNREHETNGVAKSDQKQEQLLLKKMYLMLDNKRKEVVHKIIELLNVTELTQNALINDELVEWKRRQQSACIGGPPNACLDQLQNWFTIVAESLQQVRQQLKKLEELEQKYTYEHDPITKNKQVLWDRTFSLFQQLIQSSFVVERQPCMPTHPQRPLVLKTGVQFTVKLRLLVKLQELNYNLKVKVLFDKDVNERNTVKGFRKFNILGTHTKVMNMEESTNGSLAAEFRHLQLKEQKNAGTRTNEGPLIVTEELHSLSFETQLCQPGLVIDLETTSLPVVVISNVSQLPSGWASILWYNMLVAEPRNLSFFLTPPCARWAQLSEVLSWQFSSVTKRGLNVDQLNMLGEKLLGPNASPDGLIPWTRFCKENINDKNFPFWLWIESILELIKKHLLPLWNDGCIMGFISKERERALLKDQQPGTFLLRFSESSREGAITFTWVERSQNGGEPDFHAVEPYTKKELSAVTFPDIIRNYKVMAAENIPENPLKYLYPNIDKDHAFGKYYSRPKEAPEPMELDGPKGTGYIKTELISVSEVHPSRLQTTDNLLPMSPEEFDEVSRIVGSVEFDSMMNTV
modifications: full-length
Consider B5, for which the “4. longCTD + Dox + IFNG” value amounted to 19, the “3. + IFNg + Dox longCTD” value amounted to 3 and the “SUM of PSMS” value is 43.

B6: O95373 (protein, UniProt O95373 1-1038, looked up)
chain: MDPNTIIEALRGTMDPALREAAERQLNEAHKSLNFVSTLLQITMSEQLDLPVRQAGVIYLKNMITQYWPDRETAPGDISPYTIPEEDRHCIRENIVEAIIHSPELIRVQLTTCIHHIIKHDYPSRWTAIVDKIGFYLQSDNSACWLGILLCLYQLVKNYEYKKPEERSPLVAAMQHFLPVLKDRFIQLLSDQSDQSVLIQKQIFKIFYALVQYTLPLELINQQNLTEWIEILKTVVNRDVPNETLQVEEDDRPELPWWKCKKWALHILARLFERYGSPGNVSKEYNEFAEVFLKAFAVGVQQVLLKVLYQYKEKQYMAPRVLQQTLNYINQGVSHALTWKNLKPHIQGIIQDVIFPLMCYTDADEELWQEDPYEYIRMKFDVFEDFISPTTAAQTLLFTACSKRKEVLQKTMGFCYQILTEPNADPRKKDGALHMIGSLAEILLKKKIYKDQMEYMLQNHVFPLFSSELGYMRARACWVLHYFCEVKFKSDQNLQTALELTRRCLIDDREMPVKVEAAIALQVLISNQEKAKEYITPFIRPVMQALLHIIRETENDDLTNVIQKMICEYSEEVTPIAVEMTQHLAMTFNQVIQTGPDEEGSDDKAVTAMGILNTIDTLLSVVEDHKEITQQLEGICLQVIGTVLQQHVLEFYEEIFSLAHSLTCQQVSPQMWQLLPLVFEVFQQDGFDYFTDMMPLLHNYVTVDTDTLLSDTKYLEMIYSMCKKVLTGVAGEDAECHAAKLLEVIILQCKGRGIDQCIPLFVEAALERLTREVKTSELRTMCLQVAIAALYYNPHLLLNTLENLRFPNNVEPVTNHFITQWLNDVDCFLGLHDRKMCVLGLCALIDMEQIPQVLNQVSGQILPAFILLFNGLKRAYACHAEHENDSDDDDEAEDDDETEELGSDEDDIDEDGQEYLEILAKQAGEDGDDEDWEEDDAEETALEGYSTIIDDEDNPVDEYQIFKAIFQTIQNRNPVWYQALTHGLNEEQRKQLQDIATLADQRRAAHESKMIEKHGGYKFSAPVVPSSFNFGGPAPGMN
modifications: full-length
Take B6: the “4. longCTD + Dox + IFNG” value worked out at 1, the “4. mL1dL2 + Dox + IFNG” value amounted to 3, the “3. + Dox longCTD” value worked out at 4 and the “3. + IFNg + Dox longCTD” value stood at 8. Besides, the “SUM of PSMS” value is 16.

B7: P11802 (protein, UniProt P11802 1-303, looked up)
chain: MATSRYEPVAEIGVGAYGTVYKARDPHSGHFVALKSVRVPNGGGGGGGLPISTVREVALLRRLEAFEHPNVVRLMDVCATSRTDREIKVTLVFEHVDQDLRTYLDKAPPPGLPAETIKDLMRQFLRGLDFLHANCIVHRDLKPENILVTSGGTVKLADFGLARIYSYQMALTPVVVTLWYRAPEVLLQSTYATPVDMWSVGCIFAEMFRRKPLFCGNSEADQLGKIFDLIGLPPEDDWPRDVSLPRGAFPPRGPRPVQSVVPEMEESGAQLLLEMLTFNPHKRISAFRALQHSYLHKDEGNPE
modifications: full-length
With B7, the “4. longCTD + Dox + IFNG” value turned out to be 11, the “3. + Dox longCTD” value was 1, the “3. + IFNg + Dox longCTD” value was 1 and the “SUM of PSMS” value was 16.

For the origin of these results see patent US20250339531A1, “DUX4 POLYPEPTIDES AND NUCLEIC ACIDS FOR TREATING INFLAMMATORY AND AUTOIMMUNE CONDITIONS” (Fred Hutchinson Cancer Center, priority 2021, published 2025).
